Reference: patent publication US20230168258A1 (UNIVERSIDAD DE MURCIA, published 2023)

What was measured:
Test in all cases: dot-blot
[1] = target: T1, pig oxytocin (pig, UniProt P01177 20-28)
T1 construct: only the oxytocin nonapeptide is meant; The form spotted in the dot-blot is not described; also called oxytocin of pig
T1 peptide (looked up): CYIQNCPLG

[2] = target: T2, horse oxytocin (horse, UniProt P01176 1-9)
T2 construct: The form spotted in the dot-blot is not described; also called oxytocin of horse
T2 peptide (looked up): CYIQNCPLG

[3] = target: T3, human oxytocin (human, UniProt P01178 20-28)
T3 construct: only the oxytocin nonapeptide is meant; The form spotted in the dot-blot is not described; also called oxytocin of human
T3 peptide (looked up): CYIQNCPLG

Measured: binding result

B1: monoclonal antibody P26C (antibody, V domains shown)
VH: QIQLVQSGPELKKPGETVKISCKASGYIFTNYGMNWVKQAPGKNLKWMGWINTNTGEPTYAEEFKGRFAFSLETSASIAYLKINNLKNEDTATYFCSRGGLLPLSYWGQGTLVTVSA
VL: DVVMTQTPLSLPVSLGDQASISCRSSQSLVHSNGNTYLHWFLQKPGQSPKLLIYKVSNRFSGVPDRFSGSGSGTDFTLKISRVEAEDLGVYFCSQSTHFPWTFGGGTKLEIK
notes: Mouse (BALB/c) hybridoma antibody; the isotype is stated as IgGk; It was tested as hybridoma supernatant in the ELISA; also called clone P26C; monoclonal antibody of the invention
binds: all assays above
